Results: patent US7118879
Like-named read-outs stand apart in the source and are kept apart here.

Key:
[1] = biological target: human neutrophil elastase (immobilized on Reacti-Gel agarose beads, or free) (human) (UniProt P08246); assay: acid-eluted from HNE beads
[2] = biological target: M13MB48 phage (BPTI fused to the mature M13 gene VIII major coat protein) (Bos taurus / phage M13); assay: titer after normal rabbit IgG + protein A beads; batch 5
[3] = biological target: M13mp18 phage (wild type, non-display phage); assay: titer after normal rabbit IgG
[4] = biological target: M13MB48 phage (BPTI fused to the mature M13 gene VIII major coat protein) (Bos taurus / phage M13); assay: titer after normal rabbit IgG; batch 4
[5] = biological target: M13MB48 phage (BPTI fused to the mature M13 gene VIII major coat protein) (Bos taurus / phage M13); assay: titer after normal rabbit IgG + protein A beads; batch 4
[6] = biological target: M13mp18 phage (wild type, non-display phage); assay: titer after normal rabbit IgG + protein A beads
[7] = biological target: M13MB48 phage (BPTI fused to the mature M13 gene VIII major coat protein) (Bos taurus / phage M13); assay: titer after normal rabbit IgG; batch 5
[8] = biological target: anhydro-trypsin (agarose-immobilized) (UniProt P00760); assay: anhydrotrypsin beads, experiment 1
[9] = biological target: trypsin (active, immobilized on beads, or in solution) (UniProt P00760); assay: trypsin beads
[10] = biological target: protein A (agarose beads) (UniProt P38507); assay: titer after protein A beads alone; batch 5
[11] = biological target: anhydro-trypsin (agarose-immobilized) (UniProt P00760); assay: acid-eluted from anhydrotrypsin beads, experiment 1
[12] = biological target: anhydro-trypsin (agarose-immobilized) (UniProt P00760); assay: titer after anhydrotrypsin beads
[13] = biological target: human neutrophil elastase (immobilized on Reacti-Gel agarose beads, or free) (human) (UniProt P08246); assay: HNE beads
[14] = biological target: streptavidin (agarose-immobilized) (UniProt P22629); assay: titer after streptavidin beads
[15] = biological target: trypsin (active, immobilized on beads, or in solution) (UniProt P00760); assay: acid-eluted from trypsin beads
[16] = biological target: human Cathepsin G (immobilized on agarose beads) (human) (UniProt P08311); assay: Cat-G beads, pH 2.5 eluate
[17] = biological target: human Cathepsin G (immobilized on agarose beads) (human) (UniProt P08311); assay: Cat-G beads, pH 6.0 eluate
[18] = biological target: human Cathepsin G (immobilized on agarose beads) (human) (UniProt P08311); assay: Cat-G beads, pH 5.0 eluate
[19] = biological target: human Cathepsin G (immobilized on agarose beads) (human) (UniProt P08311); assay: Cat-G beads, pH 2.0 eluate
[20] = biological target: human Cathepsin G (immobilized on agarose beads) (human) (UniProt P08311); assay: Cat-G beads, pH 3.5 eluate
[21] = biological target: human Cathepsin G (immobilized on agarose beads) (human) (UniProt P08311); assay: Cat-G beads, pH 3.0 eluate
[22] = biological target: human Cathepsin G (immobilized on agarose beads) (human) (UniProt P08311); assay: Cat-G beads, pH 4.0 eluate
[23] = biological target: human Cathepsin G (immobilized on agarose beads) (human) (UniProt P08311); assay: Cat-G beads, pH 5.5 eluate
[24] = biological target: human Cathepsin G (immobilized on agarose beads) (human) (UniProt P08311); assay: Cat-G beads, pH 7.0 eluate
[25] = biological target: human Cathepsin G (immobilized on agarose beads) (human) (UniProt P08311); assay: Cat-G beads, all pH eluates
[26] = biological target: human Cathepsin G (immobilized on agarose beads) (human) (UniProt P08311); assay: Cat-G beads, final TBS-TWEEN wash
[27] = biological target: human Cathepsin G (immobilized on agarose beads) (human) (UniProt P08311); assay: Cat-G beads, pH 4.5 eluate
[28] = biological target: human neutrophil elastase (immobilized on Reacti-Gel agarose beads, or free) (human) (UniProt P08246); assay: pH elution of phage from HNE beads
[29] = biological target: anhydro-trypsin (agarose-immobilized) (UniProt P00760); assay: eluted from anhydrotrypsin beads
[30] = biological target: trypsin (active, immobilized on beads, or in solution) (UniProt P00760); assay: trypsin beads; remark: listed apart in the source
[31] = biological target: trypsin (active, immobilized on beads, or in solution) (UniProt P00760); assay: eluted from trypsin beads
[32] = biological target: anhydro-trypsin (agarose-immobilized) (UniProt P00760); assay: anhydrotrypsin beads
[33] = biological target: anhydro-trypsin (agarose-immobilized) (UniProt P00760); assay: 10 µl immobilized anhydro-trypsin slurry, 1 h
[34] = biological target: human neutrophil elastase (immobilized on Reacti-Gel agarose beads, or free) (human) (UniProt P08246); assay: HNE beads, pH 2.2 elution
[35] = biological target: anhydro-trypsin (agarose-immobilized) (UniProt P00760); assay: anhydrotrypsin beads, experiment 2
[36] = biological target: anhydro-trypsin (agarose-immobilized) (UniProt P00760); assay: 10 µl immobilized anhydro-trypsin, dot blot
[37] = biological target: anhydro-trypsin (agarose-immobilized) (UniProt P00760); assay: 5 µl immobilized anhydro-trypsin slurry, 2 h
[38] = biological target: human neutrophil elastase (immobilized on Reacti-Gel agarose beads, or free) (human) (UniProt P08246); assay: HNE beads, pH 4.0 wash
[39] = biological target: human neutrophil elastase (immobilized on Reacti-Gel agarose beads, or free) (human) (UniProt P08246); assay: HNE beads, pH 7.0 wash
[40] = biological target: anhydro-trypsin (agarose-immobilized) (UniProt P00760); assay: 10 µl immobilized anhydro-trypsin slurry, 2 h
[41] = biological target: human neutrophil elastase (immobilized on Reacti-Gel agarose beads, or free) (human) (UniProt P08246); assay: HNE beads, sum of pH washes
[42] = biological target: anhydro-trypsin (agarose-immobilized) (UniProt P00760); assay: 2 µl immobilized anhydro-trypsin, dot blot
[43] = biological target: anhydro-trypsin (agarose-immobilized) (UniProt P00760); assay: 5 µl immobilized anhydro-trypsin, dot blot
[44] = biological target: anhydro-trypsin (agarose-immobilized) (UniProt P00760); assay: 5 µl immobilized anhydro-trypsin slurry, 1 h
[45] = biological target: streptavidin (agarose-immobilized) (UniProt P22629); assay: 5 µl immobilized streptavidin slurry, 2 h
[46] = biological target: anhydro-trypsin (agarose-immobilized) (UniProt P00760); assay: 2 µl immobilized anhydro-trypsin slurry, 4 h
[47] = biological target: streptavidin (agarose-immobilized) (UniProt P22629); assay: 5 µl immobilized streptavidin slurry, 1 h
[48] = biological target: trypsin (active, immobilized on beads, or in solution) (UniProt P00760); assay: trypsin beads, CBS pH 6.5, pH 2.2 elution
[49] = biological target: trypsin (active, immobilized on beads, or in solution) (UniProt P00760); assay: trypsin beads, TBS pH 7.5, pH 2.2 elution
[50] = biological target: anhydro-trypsin (agarose-immobilized) (UniProt P00760); assay: 10 µl immobilized anhydro-trypsin slurry, 4 h
[51] = biological target: streptavidin (agarose-immobilized) (UniProt P22629); assay: 5 µl immobilized streptavidin slurry, 4 h
[52] = biological target: anhydro-trypsin (agarose-immobilized) (UniProt P00760); assay: 5 µl immobilized anhydro-trypsin slurry, 4 h
[53] = biological target: anhydro-trypsin (agarose-immobilized) (UniProt P00760); assay: 2 µl immobilized anhydro-trypsin slurry, 1 h
[54] = biological target: anhydro-trypsin (agarose-immobilized) (UniProt P00760); assay: 2 µl immobilized anhydro-trypsin slurry, 2 h

Chain of trypsin (active, immobilized on beads, or in solution) (P00760 24-246): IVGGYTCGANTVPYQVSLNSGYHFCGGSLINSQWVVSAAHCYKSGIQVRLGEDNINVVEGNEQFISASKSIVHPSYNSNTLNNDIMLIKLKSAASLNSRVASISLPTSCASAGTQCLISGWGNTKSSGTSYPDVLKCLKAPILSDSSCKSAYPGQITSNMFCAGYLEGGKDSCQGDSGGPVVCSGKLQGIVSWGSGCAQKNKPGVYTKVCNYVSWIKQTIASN
Chain of human neutrophil elastase (immobilized on Reacti-Gel agarose beads, or free) (human) (P08246 30-247 limits assumed): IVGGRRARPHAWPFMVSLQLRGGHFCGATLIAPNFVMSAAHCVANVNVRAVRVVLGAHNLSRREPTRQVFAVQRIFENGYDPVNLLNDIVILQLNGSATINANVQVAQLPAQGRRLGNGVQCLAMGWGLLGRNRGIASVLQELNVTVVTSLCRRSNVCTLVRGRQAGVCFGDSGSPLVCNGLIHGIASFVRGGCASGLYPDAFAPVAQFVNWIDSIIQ
Chain of streptavidin (agarose-immobilized) (P22629 37-163 limits assumed): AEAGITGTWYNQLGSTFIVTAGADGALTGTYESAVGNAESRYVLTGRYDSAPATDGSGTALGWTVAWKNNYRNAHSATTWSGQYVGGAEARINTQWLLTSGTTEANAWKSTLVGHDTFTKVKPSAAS
Chain of human Cathepsin G (immobilized on agarose beads) (human) (P08311 21-244 limits assumed): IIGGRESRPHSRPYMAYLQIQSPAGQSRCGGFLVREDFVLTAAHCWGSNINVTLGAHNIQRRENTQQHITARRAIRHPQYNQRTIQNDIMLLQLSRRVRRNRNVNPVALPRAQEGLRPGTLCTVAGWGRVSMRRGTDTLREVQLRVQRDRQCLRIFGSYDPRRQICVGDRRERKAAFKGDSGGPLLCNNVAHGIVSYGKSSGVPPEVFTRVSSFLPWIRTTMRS

For “M13.3X7 phage (BPTI:VIII fusion with one EGGGS linker)”, the eluted phage, % of input [1] was 0.001%.

With “normal rabbit serum / IgG purified from normal rabbit pre-immune serum (antibody)” the % of input pfu [2] was 110%, the % of input pfu [3] was 104% and the % of input pfu [4] was 125%. It also gave a % of input pfu [5] of 121%, a % of input pfu [6] of 88% and a % of input pfu [7] of 105%.

With “M13MB48 phage (BPTI fused to the mature M13 gene VIII major coat protein)” the binding relative to M13MP18 [8] was 56 fold, the relative binding (to M13MP18) [9] was 260 fold and the % of input pfu [10] was 58%. The eluted phage, % of input [1] was 0.009%, the eluted phage, % of input [11] was 11.2% and the % of input pfu post incubation [12] was 58%. It also gave a relative binding (to M13MP18) [13] of 30 fold, a % of input pfu post incubation [14] of 98% and an eluted phage, % of input [15] of 0.13%.

Work on “MA-ITI phage (M13 phage displaying human ITI domain I fused to the gene III protein) (from UniProt P02760 227-281)” yielded a fraction of input [16] of 5.9e-07, a fraction of input [17] of 5e-06 and a fraction of input [18] of 2.4e-06. It also gave a fraction of input [19] of 7e-07, a fraction of input [20] of 9.6e-07 and a fraction of input [21] of 7.8e-07. It also gave a fraction of input [22] of 9.6e-07, a fraction of input [23] of 2.6e-06 and a fraction of input [24] of 1.3e-05. It also gave a fraction of input, SUM of pH elution fractions [25] of 3e-05, a total pfu, SUM of pH elution fractions [25] of 1.4e+07 pfu and a fraction of input [26] of 1.5e-05. For the same substance, the total pfu in sample [26] was 7.1e+06 pfu and the fraction of input [27] was 1.5e-06.

In the case of “BPTI(K15V,R17L)-III MA phage (designed binder)”, the pH of elution peak [28] is reported as 4.25 pH.

For “M13.3X11 phage (BPTI:VIII fusion with three linker units)”, the relative binding (to M13MP18) [9] was 1600 fold, the eluted phage, % of input [29] was 9.2% and the eluted phage, % of input [1] was 0.002%. For the same substance, the relative binding (to M13MP18) [30] was 1200 fold, the eluted phage, % of input [31] was 0.27% and the relative binding (to M13MP18) [13] was 6.7 fold. The eluted phage, % of input [15] was 0.8% and the relative binding (to M13MP18) [32] was 92 fold.

“BPTI-III MK phage (M13 phage displaying mature BPTI fused to the gene III protein)” gave a percent residual titer [33] of 40%, a relative binding (to M13MP18) [9] of 2000 fold and a % of input phage recovered [34] of 0.005%. It also gave a binding relative to M13mp18 [35] of 40 fold, a percent of total phage recovered in elution buffer [36] of 50% and an eluted phage, % of input [1] of 0.005%. For the same substance, the percent residual titer [37] was 40%, the % of input phage [38] was 0.001% and the total pfu in fraction [38] was 30000 pfu. For the same substance, the % of input phage [39] was 0.002%, the total pfu in fraction [39] was 50000 pfu and the relative binding (to M13MP18) [30] was 5000 fold. It also gave a percent residual titer [40] of 30%, a percentage of input phage recovered (all fractions) [41] of 0.008% and a percent of total phage recovered in elution buffer [42] of 5%. The percent of total phage recovered in elution buffer [43] was 20% and the eluted phage, % of input [15] was 1%.

Work on “MK phage (M13-MB1/2-delta-NarI with kanamycin-resistance gene; no displayed domain)” yielded a percent residual titer [44] of 110%, a percent residual titer [45] of 96% and a percent residual titer [46] of 95%. For the same substance, the percent residual titer [33] was 99%, the percent residual titer [47] was 106% and the % of input phage recovered [48] was 0.00028%. For the same substance, the total pfu recovered in elution buffer [48] was 1.35e+06 pfu, the percent residual titer [37] was 111% and the % of input phage recovered [49] was 0.00034%. The total pfu recovered in elution buffer [49] was 1.48e+06 pfu, the percent residual titer [40] was 93% and the percent residual titer [50] was 106%. It also gave a percent residual titer [51] of 98%, a percent residual titer [52] of 96% and a percent residual titer [53] of 97%. The percent residual titer [54] was 103%.
